{"source": "paper PMC4106346", "about": "“The Oligomeric States of the Purified Sigma-1 Receptor Are Stabilized by Ligands” (The Journal of Biological Chemistry, 2014)", "molecular_target": "Q60492", "assay": "TOXCAT (ToxR-driven CAT reporter of transmembrane self-association); TM domain between MBP and ToxR in the membrane of E. coli MM39; CAT activity of lysates as percent of glycophorin A", "conditions": "other: TOXCAT (ToxR-driven CAT reporter of transmembrane self-association)"}
{"protein": "WVFVNAGGWMLAMCLLHASL", "note": "[TM2 domain of S1R with G91L in the TOXCAT construct]", "values": [{"measurement": "TOXCAT response relative to nonmutated TM2", "result": "attenuated to only 60% of that observed from the nonmutated TM2"}]}
